Patent US20200165335A1 (Seagen, published 2020)
Residue numbers refer to the chain shown, from its start. “And” between values parts separate entries of the source, which are not always exact repeats. Equal entries are not always repeated.

T1: human LIV-1 (human, UniProt Q13433 29-755)
T1 construct: also called hLIV-1; Q13433
T1 sequence: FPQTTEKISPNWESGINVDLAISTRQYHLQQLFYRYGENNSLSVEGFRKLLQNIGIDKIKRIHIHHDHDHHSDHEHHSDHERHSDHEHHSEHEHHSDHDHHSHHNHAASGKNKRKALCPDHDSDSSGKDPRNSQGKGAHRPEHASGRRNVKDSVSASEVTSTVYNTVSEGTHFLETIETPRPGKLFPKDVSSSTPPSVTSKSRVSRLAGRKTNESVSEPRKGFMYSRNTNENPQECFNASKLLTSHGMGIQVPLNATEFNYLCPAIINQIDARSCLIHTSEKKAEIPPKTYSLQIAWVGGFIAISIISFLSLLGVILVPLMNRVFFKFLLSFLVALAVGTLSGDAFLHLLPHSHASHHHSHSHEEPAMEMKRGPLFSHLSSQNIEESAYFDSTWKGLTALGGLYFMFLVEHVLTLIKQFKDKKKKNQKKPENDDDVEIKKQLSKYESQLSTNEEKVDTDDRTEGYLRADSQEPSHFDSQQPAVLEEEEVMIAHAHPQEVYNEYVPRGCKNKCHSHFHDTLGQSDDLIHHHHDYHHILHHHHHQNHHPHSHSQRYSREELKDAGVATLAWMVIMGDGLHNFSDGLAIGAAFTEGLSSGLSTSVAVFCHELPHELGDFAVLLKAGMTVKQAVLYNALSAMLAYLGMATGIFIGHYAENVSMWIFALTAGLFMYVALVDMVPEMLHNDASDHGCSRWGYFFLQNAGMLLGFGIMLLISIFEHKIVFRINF

T2: human LIV-1 (UniProt Q13433 29-755)
T2 chain: T1 sequence

T3: cynomolgus monkey LIV-1
T3 chain: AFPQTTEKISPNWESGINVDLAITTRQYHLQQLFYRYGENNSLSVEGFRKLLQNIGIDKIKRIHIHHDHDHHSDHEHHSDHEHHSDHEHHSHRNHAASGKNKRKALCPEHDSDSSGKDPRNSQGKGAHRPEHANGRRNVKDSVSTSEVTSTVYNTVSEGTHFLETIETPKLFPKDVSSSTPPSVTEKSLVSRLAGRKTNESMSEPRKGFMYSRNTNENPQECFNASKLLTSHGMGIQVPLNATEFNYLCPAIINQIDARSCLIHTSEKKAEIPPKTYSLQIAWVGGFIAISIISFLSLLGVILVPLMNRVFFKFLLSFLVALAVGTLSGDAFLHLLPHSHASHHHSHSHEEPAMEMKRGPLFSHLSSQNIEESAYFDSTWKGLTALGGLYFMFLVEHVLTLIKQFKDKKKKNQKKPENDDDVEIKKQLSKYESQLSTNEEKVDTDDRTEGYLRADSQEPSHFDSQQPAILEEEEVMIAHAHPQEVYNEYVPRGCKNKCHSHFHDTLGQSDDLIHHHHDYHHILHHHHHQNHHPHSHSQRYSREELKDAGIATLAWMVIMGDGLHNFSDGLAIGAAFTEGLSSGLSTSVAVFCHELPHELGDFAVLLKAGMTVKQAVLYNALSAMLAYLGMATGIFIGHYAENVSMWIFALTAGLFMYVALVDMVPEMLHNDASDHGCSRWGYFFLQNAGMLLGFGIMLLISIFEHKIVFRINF

T4: cynomolgus monkey LIV-1 (cynomolgus monkey, UniProt Q5R9M9 28-743 (Pongo abelii entry))
T4 construct: Recombinant on transfected CHO cells; also called cyno LIV-1; cyLIV-1
T4 chain: T3 chain

B1: humanized BR2-14a antibody HBLB (hLIV14) (antibody, human IgG1, V domains shown)
VH: QVQLVQSGAEVKKPGASVKVSCKASGYTIEDYYMHWVRQAPGQGLEWMGWIDPENGDTEYAPTFQGRVTMTRDTSINTAYMELSRLRSDDTAVYYCARHDAHYGTWFAYWGQGTLVTVSS
VL: DVVMTQSPLSLPVTLGQPASISCRSSQSIIRNDGNTYLEWYQQRPGQSPRRLIYRVSNRFSGVPDRFSGSGSGTDFTLKISRVEAEDVGVYYCFQGSHVPYTFGGGTKVEIKR
notes: also called hLIV-14 HBLB WT; LIV-1 mAb HBLB
B2: humanized BR2-22a antibody HGLG (hLIV22) (antibody, V domains shown)
VH: B1 VH with Y27L, A61G, T63K, R98V, D100N
VL: B1 VL with I29L, I30L, R31H, N32S, D33S, R51P, R55K, V56I, N58T
notes: Only variable regions tied to the tested antibody; also called humanized LIV22 antibody; hLIV-22 HG + hLIV-22 LG

Assays:
human LIV-1 [1] = target: T1, human LIV-1; experiment: comparison of the EC50s of Table 3, CHO cells expressing human LIV-1
Procedure: (§1) 1×10⁵ CHO cells expressing recombinant human LIV-1 in PBS/BSA were aliquoted into each well of a 96-well v-bottom plates on ice. […] Cells were pelleted and washed 3 times with PBS/BSA. The cells were pelleted and resuspended in 125 μL of PBS/BSA. Fluorescence was analyzed by flow cytometry, using percent of saturated fluorescent signal to determine percent labeled murine LIV-1 mAb bound and to subsequently extrapolate the EC50 by fitting the data to a sigmoidal dose-response curve with variable slope.

human LIV-1 [2] = target: T2, human LIV-1; experiment: competition binding on CHO hLIV1 cells
human LIV-1 [3] = target: T2, human LIV-1; experiment: saturation binding, flow cytometry on MCF7 cells; AF-labeled
human LIV-1 [4] = target: T1, human LIV-1; experiment: average of several saturation binding curves, flow cytometry, MCF7 cells
human LIV-1 [5] = target: T1, human LIV-1; experiment: saturation binding, CHO cells expressing human or cyno LIV-1 (FIG. 22)
human LIV-1 [6] = target: T1, human LIV-1; experiment: competition flow cytometry, CHO cells expressing human LIV-1, vs 5 nM AF647-labelled BR2-14a
Procedure: as §1

human LIV-1 [7] = target: T2, human LIV-1; experiment: saturation binding on CHO cells; apparent Kd
cynomolgus monkey LIV-1 [8] = target: T3, cynomolgus monkey LIV-1; experiment: saturation binding on CHO cells; apparent Kd
cynomolgus monkey LIV-1 [9] = target: T4, cynomolgus monkey LIV-1; experiment: EC50 determination, CHO cells expressing recombinant cyno LIV-1
Procedure: as §1, with “recombinant cyno” for “recombinant human”, “in PBS” for “in PBS/BSA”, “aliquoted in” for “aliquoted into”, “with PBS.” for “with PBS/BSA.”

cynomolgus monkey LIV-1 [10] = target: T4, cynomolgus monkey LIV-1; experiment: saturation binding, CHO cells expressing cyno LIV-1 (FIG. 22)
human LIV-1 [11] = target: T1, human LIV-1; experiment: saturation binding, CHO cells expressing human LIV-1 (FIG. 22)
human LIV-1 [12] = target: T1, human LIV-1; experiment: competition flow cytometry, CHO cells expressing recombinant LIV-1, vs 5 nM AF647-labelled BR2-22a
Procedure: 1×10⁵ CHO cells expressing recombinant LIV-1 in PBS were aliquoted into each well of a 96-well v-bottom plates on ice. […] Cells were pelleted and washed 3 times with PBS. The cells were then pelleted and resuspended in 125 μL of PBS/BSA. Fluorescence was analyzed by flow cytometery, using percent of saturated fluorescent signal to determine percent labeled humanized BR2-22a antibody bound and to subsequently extrapolate the EC50 by fitting the data to a sigmoidal dose-response curve with variable slope.
All permutations of these five heavy chains and six light chains were then tested in a competition assay compared with BR2-22a (see FIG. 17).

| Binder | fold better binding than the next humanized antibody HBLF (human LIV-1 [1]) [fold] | EC50 (human LIV-1 [2]) [mg/L] | Kd (human LIV-1 [3]) | Kd (human LIV-1 [4]) [nM] | fold affinity for human LIV-1 relative to cynomolgus LIV-1 (human LIV-1 [5]) [fold] | EC50 (human LIV-1 [6]) [mg/L] | Kd (human LIV-1 [7]) [nM] | Kd (cynomolgus monkey LIV-1 [8]) [nM] | binding result (cynomolgus monkey LIV-1 [9]) | binding result (cynomolgus monkey LIV-1 [10]) | fold higher affinity (inverse of dissociation constant) than hLIV14 (human LIV-1 [11]) [fold] | EC50 (human LIV-1 [12]) [mg/L] |
| --- | --- | --- | --- | --- | --- | --- | --- | --- | --- | --- | --- | --- |
| B1 | ≥ 2 | 0.642 | 0.4 µg/mL and 2.9 nM | 1.5 | 2 | 0.3 | 4.3 | 2.1 | binds | – | – | – |
| B2 | – | – | – | – | – | – | 1.2 | 1.3 | – | binds | ~4 | 0.5 |
